Patent US5455329A, “DNA sequences coding for PTH variants, PTH variants, expression vector, bacterial host, use and therapeutic composition” (Gesellschaft fur Biotechnologische Forschung mbH (GBF), priority 1989, dated 1995)
Numbering of substitutions follows the chain as printed. Names and notes keep the numbering of the source.

B1: Q29N: hPTH variant Gln(29) -> Asn(29), lengthened N-terminally by one proline (protein, UniProt P01270 32-115, looked up, variant Q29N)
Parathyroid hormone: SVSEIQLMHNLGKHLNSMERVEWLRKKLNDVHNFVALGAPLAPRDAGSQRPRKKEDNVLVESHEKSLGEADKADVNVLTKAKSQ
modifications: Parathyroid hormone N-terminal proline extension
notes: hPTH variant Gln(29) -> Asn(29), lengthened N-terminally by one proline
B2: Q29A: hPTH variant Gln(29) -> Ala(29), lengthened N-terminally by one proline (protein, UniProt P01270 32-115, looked up, variant Q29A)
Parathyroid hormone: B1 Parathyroid hormone with N29A
modifications: Parathyroid hormone N-terminal proline extension
notes: hPTH variant Gln(29) -> Ala(29), lengthened N-terminally by one proline
B3: H32K: hPTH variant His(32) -> Lys(32), lengthened N-terminally by one proline (protein, UniProt P01270 32-115, looked up, variant H32K)
Parathyroid hormone: B1 Parathyroid hormone with N29Q, H32K
modifications: Parathyroid hormone N-terminal proline extension
notes: hPTH variant His(32) -> Lys(32), lengthened N-terminally by one proline
B4: L11K: hPTH variant Leu(11) -> Lys(11), lengthened N-terminally by one proline (protein, UniProt P01270 32-115, looked up, variant L11K)
Parathyroid hormone: B1 Parathyroid hormone with L11K, N29Q
modifications: Parathyroid hormone N-terminal proline extension
notes: hPTH variant Leu(11) -> Lys(11), lengthened N-terminally by one proline
B5: H32L: hPTH variant His(32) -> Leu(32), lengthened N-terminally by one proline (protein, UniProt P01270 32-115, looked up, variant H32L)
Parathyroid hormone: B1 Parathyroid hormone with N29Q, H32L
modifications: Parathyroid hormone N-terminal proline extension
notes: hPTH variant His(32) -> Leu(32), lengthened N-terminally by one proline
B6: H32R: hPTH variant His(32) -> Arg(32), lengthened N-terminally by one proline (protein, UniProt P01270 32-115, looked up, variant H32R)
Parathyroid hormone: B1 Parathyroid hormone with N29Q, H32R
modifications: Parathyroid hormone N-terminal proline extension
notes: hPTH variant His(32) -> Arg(32), lengthened N-terminally by one proline
B7: E4R, R20E: hPTH variant Glu(4) Arg(20) -> Arg(4), Glu(20), lengthened N-terminally by one proline (protein, UniProt P01270 32-115, looked up, variant E4R R20E)
Parathyroid hormone: B1 Parathyroid hormone with E4R, R20E, N29Q
modifications: Parathyroid hormone N-terminal proline extension
notes: hPTH variant Glu(4) Arg(20) -> Arg(4), Glu(20), lengthened N-terminally by one proline
B8: K27R: hPTH variant Lys(27) -> Arg(27), lengthened N-terminally by one proline (protein, UniProt P01270 32-115, looked up, variant K27R)
Parathyroid hormone: B1 Parathyroid hormone with K27R, N29Q
modifications: Parathyroid hormone N-terminal proline extension
notes: hPTH variant Lys(27) -> Arg(27), lengthened N-terminally by one proline
B9: R20E: hPTH variant Arg(20) -> Glu(20), lengthened N-terminally by one proline (protein, UniProt P01270 32-115, looked up, variant R20E)
Parathyroid hormone: B1 Parathyroid hormone with R20E, N29Q
modifications: Parathyroid hormone N-terminal proline extension
notes: hPTH variant Arg(20) -> Glu(20), lengthened N-terminally by one proline
B10: K13P: hPTH variant Lys(13) -> Pro(13), lengthened N-terminally by one proline (protein, UniProt P01270 32-115, looked up, variant K13P)
Parathyroid hormone: B1 Parathyroid hormone with K13P, N29Q
modifications: Parathyroid hormone N-terminal proline extension
notes: hPTH variant Lys(13) -> Pro(13), lengthened N-terminally by one proline
B11: K27L: hPTH variant Lys(27) -> Leu(27), lengthened N-terminally by one proline (protein, UniProt P01270 32-115, looked up, variant K27L)
Parathyroid hormone: B1 Parathyroid hormone with K27L, N29Q
modifications: Parathyroid hormone N-terminal proline extension
notes: hPTH variant Lys(27) -> Leu(27), lengthened N-terminally by one proline
B12: E4R: hPTH variant Glu(4) -> Arg(4), lengthened N-terminally by one proline (protein, UniProt P01270 32-115, looked up, variant E4R)
Parathyroid hormone: B1 Parathyroid hormone with E4R, N29Q
modifications: Parathyroid hormone N-terminal proline extension
notes: hPTH variant Glu(4) -> Arg(4), lengthened N-terminally by one proline

Columns and labels:
[1] = tested on: embryonal chicken chondrocytes; assay: Increase of DNA synthesis of embryonal chicken chondrocytes; type: cell-based; conditions: for DNA synthesis (%) relative activity: relative to recombinant hPTH (=100), stimulation beyond the base level, chondrocytes; for Effect on stimulation of DNA synthesis (in words, group classification): qualitative, versus wild type PTH
Method: They were also tested for their ability, according to DE-A-37 25 319.0 and DE-A-37 25 320.4, to increase the DNA synthesis of embryonal chicken chondrocytes.

[2] = tested on: adenylate cyclase in isolated membranes of porcine adrenal cortices; assay: Stimulation of adenylate cyclase in isolated membranes, in vitro test according to Mohr and Hesch; type: biochemical; conditions: for Adenylate cyclase (%) relative activity: relative to recombinant hPTH (=100), stimulation beyond the base level; for Effect on adenylate cyclase stimulation (in words, group classification): qualitative, versus wild type PTH
Method: The PTH variants so obtained were tested for their ability to stimulate adenylate cyclase in isolated membranes of porcine adrenal cortices in an in vitro test according to Mohr and Hesch (Biochem. J., 188 (1980) 649-656) .

Row | Molecule | DNA synthesis (%) relative activity [1] [%] | Adenylate cyclase (%) relative activity [2] [%] | Effect on stimulation of DNA synthesis (in words, group classification) [1] | Effect on adenylate cyclase stimulation (in words, group classification) [2]
1 | rec-hPTH: recombinant human parathyroid hormone wild type, lengthened N-terminally by one proline residue; reference = 100 % [reference compound] | 100 | 100 |  | 
2 | B1 | 95 | 99 | maintain the stimulation | maintain the stimulation
3 | B2 | 8 | 104 | significant reduction in the stimulation of DNA synthesis | substantial retention of the effect on adenylate cyclase
4 | B3 | 22 | 85 | significant reduction in the stimulation of DNA synthesis | substantial retention of the effect on adenylate cyclase
5 | B4 | 21 | 89 | reduce that of DNA synthesis | maintain the stimulation of adenylate cyclase
6 | B5 | 11 | 93 | significant reduction in the stimulation of DNA synthesis | substantial retention of the effect on adenylate cyclase
7 | B6 | 36 | 87 | significant reduction in the stimulation of DNA synthesis | substantial retention of the effect on adenylate cyclase
8 | B7 | 58 | 20 | increase in DNA synthesis | significant reduction in adenylate cyclase stimulation
9 | B8 | 81 | 90 | maintain the stimulation | maintain the stimulation
10 | B9 | 0 | 0 | unaffected DNA synthesis | significant reduction in adenylate cyclase stimulation
11 | B10 | 88 | 6 | increase in DNA synthesis | significant reduction in adenylate cyclase stimulation
12 | B11 | 70 | 35 | increase in DNA synthesis | significant reduction in adenylate cyclase stimulation
13 | B12 | 88 | 47 | increase in DNA synthesis | significant reduction in adenylate cyclase stimulation
